Data set [1] concerns the molecule itself. The experiment in a line: SEC + cross-linking; 250 uL of 2 mg/mL protein on Superose 6 Increase 10/300 GL in 5 mM HEPES pH 8.0, 0.5 mM EGTA, 2 mM DTT; samples from each peak cross-linked with 0.024% glutaraldehyde at 30 °C for 60 min, SDS-PAGE in 12.5% gel.
Data set [2] deals with the molecule itself. Nature of the data set: cross-linking; NFL1B at 1 and 2 mg/mL, 0.008% or 0.024% glutaraldehyde, SDS-PAGE.

B1: NFL2 (neurofilament light chain protein, coil 2, Val249-Glu396) (domain or fragment, human, UniProt P07196 249-396, looked up)
chain: VTKPDLSAALKDIRAQYEKLAAKNMQNAEEWFKSRFTVLTESAAKNTDAVRAAKDEVSESRRLLKAKTLEIEACRGMNEALEKQLQELEDKQNADISAMQDTINKLENELRTTKSEMARYLKEYQDLLNVKMALDIEIAAYRKLLEGE
notes: neurofilament light chain protein (NFL), human, product of the NEFL gene, UniProt P07196, coil 2, residues Val249-Glu396; The monomer mass used for DSC is 16.9 kDa; also called NFL coil 2; source: E. coli C41, inclusion bodies solubilised in 8 M urea, purified (HisTrap HP), renatured by dialysis
As to B1, the stoichiometry N (in general, a count of units in the complex or per binding partner) in data set [1] is 2.

B2: NFLROD (neurofilament light chain protein rod domain, coils 1A, 1B and 2, Ser80-Glu396) (domain or fragment, human, UniProt P07196 80-396, looked up)
chain: SNDLKSIRTQEKAQLQDLNDRFASFIERVHELEQQNKVLEAELLVLRQKHSEPSRFRALYEQEIRDLRLAAEDATNEKQALQGEREGLEETLRNLQARYEEEVLSREDAEGRLMEARKGADEAALARAELEKRIDSLMDEISFLKKVHEEEIAELQAQIQYAQISVEMDVTKPDLSAALKDIRAQYEKLAAKNMQNAEEWFKSRFTVLTESAAKNTDAVRAAKDEVSESRRLLKAKTLEIEACRGMNEALEKQLQELEDKQNADISAMQDTINKLENELRTTKSEMARYLKEYQDLLNVKMALDIEIAAYRKLLEGE
notes: neurofilament light chain protein (NFL), human, product of the NEFL gene, UniProt P07196, rod domain (coils 1A, 1B and 2), residues Ser80-Glu396; The monomer mass used for DSC is 36.6 kDa; also called NFL rod domain; full rod domain (1A+1B+2); source: E. coli C41, inclusion bodies solubilised in 8 M urea, purified (HisTrap HP), renatured by dialysis
As to B2, in data set [1], the “stoichiometry N” value turned out to be 4.

B3: NFL_(1A+1B) (neurofilament light chain protein, coils 1A and 1B, Ser80-Ile243) (domain or fragment, human, UniProt P07196 80-243, looked up)
chain: SNDLKSIRTQEKAQLQDLNDRFASFIERVHELEQQNKVLEAELLVLRQKHSEPSRFRALYEQEIRDLRLAAEDATNEKQALQGEREGLEETLRNLQARYEEEVLSREDAEGRLMEARKGADEAALARAELEKRIDSLMDEISFLKKVHEEEIAELQAQIQYAQI
notes: neurofilament light chain protein (NFL), human, product of the NEFL gene, UniProt P07196, coils 1A and 1B, residues Ser80-Ile243; The monomer mass used for DSC is 19.2 kDa; also called coil 1; source: E. coli C41, purified from the fraction of soluble proteins (HisTrap HP, imidazole gradient)
Regarding B3, the “stoichiometry N” value in data set [1] amounted to 2.

B4: NFL1B (neurofilament light chain protein, coil 1B, Ser133-Ile243) (domain or fragment, human, UniProt P07196 133-243, looked up)
chain: SRFRALYEQEIRDLRLAAEDATNEKQALQGEREGLEETLRNLQARYEEEVLSREDAEGRLMEARKGADEAALARAELEKRIDSLMDEISFLKKVHEEEIAELQAQIQYAQI
notes: neurofilament light chain protein (NFL), human, product of the NEFL gene, UniProt P07196, coil 1B, residues Ser133-Ile243; Dimer at 1-2 mg/mL; larger oligomers also at 5 mg/mL; also called NFL coil 1B domain; source: E. coli C41, purified from the fraction of soluble proteins (HisTrap HP, imidazole gradient)
Take B4: in data set [2], the “stoichiometry N” value turned out to be 2.

B5: NFL_(1B+2) (neurofilament light chain protein, coils 1B and 2, Ser133-Glu396) (domain or fragment, human, UniProt P07196 133-396, looked up)
chain: SRFRALYEQEIRDLRLAAEDATNEKQALQGEREGLEETLRNLQARYEEEVLSREDAEGRLMEARKGADEAALARAELEKRIDSLMDEISFLKKVHEEEIAELQAQIQYAQISVEMDVTKPDLSAALKDIRAQYEKLAAKNMQNAEEWFKSRFTVLTESAAKNTDAVRAAKDEVSESRRLLKAKTLEIEACRGMNEALEKQLQELEDKQNADISAMQDTINKLENELRTTKSEMARYLKEYQDLLNVKMALDIEIAAYRKLLEGE
notes: neurofilament light chain protein (NFL), human, product of the NEFL gene, UniProt P07196, coils 1B and 2, residues Ser133-Glu396; The monomer mass used for DSC is 30.4 kDa; source: E. coli C41, inclusion bodies solubilised in 8 M urea, purified (HisTrap HP), renatured by dialysis
For B5, the “stoichiometry N” value in data set [1] was 4.

The values are drawn from PMC10813002, “Neurofilament Light Protein Rod Domain Exhibits Structural Heterogeneity” (Biomolecules, 2024).
